Assay results as given in the supplement of paper PMC9112550, “Optimization of the antimicrobial peptide Bac7 by deep mutational scanning” (BMC Biology, 2022).

System: Escherichia coli TOP10
Assay: shrunken log2 fold change of peptide-encoding DNA abundance (4.5 h post-induction vs induction); higher = less antimicrobial activity (less host growth inhibition)
Details: time post-induction: 4.5 h; library: site-saturation at positions 5, 18, 19, 20
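Further: peptides expressed intracellularly from a pBAD plasmid library in pooled LB shake-flask culture, induced with 0.3% L-arabinose, DNA abundance read by NGS, three biological replicates, DESeq2 with apeglm shrinkage.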

Sequence | shrunken log2 fold change
RRIRTRPPRLPRPRPRPPHYPRP | 0.0354
RRIRWRPPRLPRPRPRPITCPRP | -0.0627
RRIRKRPPRLPRPRPRPCDVPRP | 0.0144
RRIRIRPPRLPRPRPRPEKIPRP | -0.0431
RRIRYRPPRLPRPRPRPDCMPRP | 0.0186
RRIRNRPPRLPRPRPRPNMMPRP | -0.25
RRIRHRPPRLPRPRPRPSNEPRP | -0.271
RRIRSRPPRLPRPRPRPMGFPRP | -0.0207
RRIRNRPPRLPRPRPRPYRAPRP | -0.183
RRIRLRPPRLPRPRPRPPIYPRP | -0.15
RRIRPRPPRLPRPRPRPYHFPRP | -0.245
RRIRMRPPRLPRPRPRPRMAPRP | 1.38
RRIRSRPPRLPRPRPRPCARPRP | 0.00657
RRIRLRPPRLPRPRPRPVIHPRP | -1.64
RRIRERPPRLPRPRPRPQLFPRP | 0.0984
RRIRTRPPRLPRPRPRPICHPRP | 0.055
RRIRLRPPRLPRPRPRPFWHPRP | -0.0379
RRIRWRPPRLPRPRPRPEAPPRP | 1.01
RRIRWRPPRLPRPRPRPFDPPRP | 0.0827
RRIRERPPRLPRPRPRPVLSPRP | -0.101
RRIRYRPPRLPRPRPRPTWQPRP | -0.255
RRIRMRPPRLPRPRPRPPEAPRP | 0.779
RRIRPRPPRLPRPRPRPTVWPRP | 0.747
RRIRFRPPRLPRPRPRPPDSPRP | 0.0539
RRIRLRPPRLPRPRPRPAPFPRP | -0.0923
RRIRNRPPRLPRPRPRPAFEPRP | 0.0155
RRIRKRPPRLPRPRPRPANCPRP | 0.0966

Sequence | shrunken log2 fold change
RRIRLRPPRLPRPRPRPDWVPRP | -0.0945
RRIRTRPPRLPRPRPRPNMRPRP | 0.33
RRIRNRPPRLPRPRPRPKDHPRP | -0.218
RRIRERPPRLPRPRPRPVVIPRP | -0.251
RRIRCRPPRLPRPRPRPGMSPRP | 0.0961
RRIRERPPRLPRPRPRPDATPRP | 0.645
RRIRGRPPRLPRPRPRPSIRPRP | 0.417
RRIRGRPPRLPRPRPRPDPTPRP | 1.06
RRIRWRPPRLPRPRPRPLPNPRP | 0.783
RRIRVRPPRLPRPRPRPDIFPRP | -0.171
RRIRLRPPRLPRPRPRPFQIPRP | -0.109
RRIRFRPPRLPRPRPRPVRHPRP | 0.0636
RRIRSRPPRLPRPRPRPQNFPRP | 0.00814
RRIRVRPPRLPRPRPRPKWSPRP | 0.0979
RRIRYRPPRLPRPRPRPTCRPRP | -0.157
RRIRQRPPRLPRPRPRPKRPPRP | 0.135
RRIRPRPPRLPRPRPRPSMTPRP | 0.496
RRIRDRPPRLPRPRPRPVSRPRP | 0.218
RRIRWRPPRLPRPRPRPREQPRP | 0.349
RRIRVRPPRLPRPRPRPRFAPRP | 0.527
RRIRWRPPRLPRPRPRPQNVPRP | -0.0645
RRIRGRPPRLPRPRPRPDHCPRP | 0.0254
RRIRSRPPRLPRPRPRPQTVPRP | -0.26
RRIRARPPRLPRPRPRPEDCPRP | 0.243
RRIRYRPPRLPRPRPRPAFGPRP | -0.21
RRIRLRPPRLPRPRPRPCIDPRP | -0.166
RRIRVRPPRLPRPRPRPLVTPRP | -0.348
